Assay results reported in the supplement of paper PMC9170038.

Test system: MS2 coat protein
Experiment: apparent KD of MS2 coat protein; designed switch direction (-1 OFF switch, 1 ON switch): -1; higher = weaker reporter binding
In short: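 Transcription of designed RNA switches on Illumina chips was done by stalled E. coli RNA polymerase. SNAP-549-labelled MS2 coat protein was then titrated in doubling steps from 0.7 or 1.5 nM to 3 µM, with steps of 0.8–1.5 h at the lowest and 10–20 min at the highest concentration. The per-design median over clusters of curve-fitted normalised fluorescence is reported as apparent KD.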

[1] = Eterna round: R95, input ligand: microRNA oligo, concentration not stated
[2] = Eterna round: R95, input ligand: FMN 200 uM
[3] = Eterna round: R95, input ligand: none
[4] = input ligand: microRNA oligo, concentration not stated

## UUAAGGAUAGAGGAUAUAUUAAAGAAGGUGGCGAUAGAAGGCUAGACAUGAGGAUCACCCAUGUAAAUUGGGAU [JR_Ex6_Sub068] (Eterna round: R97, puzzle: Exclusion 6)
Input ligand: FMN 200 uM
  apparent KD of MS2 coat protein: 378 nM
Input ligand: none
  apparent KD of MS2 coat protein: 309 nM

## CUAUUACGAGGAUAUGAUUUAAAUAACAUGAGGAUCACCCAUGUUUUUACGUUAUUAUGUUCAGAAGGCGUAUUGU [JR_E5_Sub025] (puzzle: Exclusion 5)
[1]
  apparent KD of MS2 coat protein: 28 nM

## AGGUGUAGAGGAUAUUCAUUCUUCCACAUGAGGAUCACCCAUGUCCCGGUCACCAGGGACGGAGAAGGCUACACCA [Omei Ex5 D26] (Eterna round: R97, puzzle: Exclusion 5)
Input ligand: FMN 200 uM
  apparent KD of MS2 coat protein: 108 nM
Input ligand: none
  apparent KD of MS2 coat protein: 76.8 nM

## UAAAGGCUAGGAUAUCGCACCUUCGACAUGAGGAUCACCCAUGUAUGUCGAUGGUAAAAUCGAGAAGGAGCGAGAA [Artiedqu] (puzzle: Exclusion 5)
[2]
  apparent KD of MS2 coat protein: 31.7 nM
[1]
  apparent KD of MS2 coat protein: 21.7 nM
[3]
  apparent KD of MS2 coat protein: 17.8 nM

## UACACUGCAUGAGGAUCAAACAUGAGGAUCACCCAUGUGUAGCAAGCUUUUUGCUCGUCUUAUAAUUAUGUAGUGUA [Electric Eye 11 - Jieux - Sensor, turn-off variant 1] (Eterna round: R97, puzzle: Sensor, turn-off variant 1)
Input ligand: FMN 200 uM
  apparent KD of MS2 coat protein: 14 nM
Input ligand: none
  apparent KD of MS2 coat protein: 12.1 nM

## GGUUGGCGAGGAUAUACAUGAGGAUCACCCAUGUGAGAGAAAAAAGUCAGGAAGAAAAGUAGAAGGCGCUGACG [salish99_ex3_r3_028] (puzzle: Exclusion 3)
[2]
  apparent KD of MS2 coat protein: 32.4 nM
[1]
  apparent KD of MS2 coat protein: 21.7 nM
[3]
  apparent KD of MS2 coat protein: 22.5 nM

## GAUUAUGCGAGCUUUAGGGACAUGAGGAUCACCCAUGUUCGUCUUAUUGGUCUGAAUACACUGACAUACCUAAAUCU [JMF 56] (Eterna round: R96, puzzle: Sensor v3, turn-off variant 1)
Input ligand: FMN 200 uM
  apparent KD of MS2 coat protein: 17.1 nM
[4]
  apparent KD of MS2 coat protein: 18.3 nM
Input ligand: none
  apparent KD of MS2 coat protein: 18.7 nM

## GUCAGCUCGUCAGGAUAUGAACAUGAGGAUCACCCAUGUAAGAUCAAGCUGCUUCGGCAGCAAGUUCAGAAGGGACGAGCUGAU [ENG2/10-B2] (Eterna round: R96, puzzle: Exclusion NG 2)
Input ligand: FMN 200 uM
  apparent KD of MS2 coat protein: 167 nM
[4]
  apparent KD of MS2 coat protein: 136 nM
Input ligand: none
  apparent KD of MS2 coat protein: 104 nM

## UAUUACUCAGGAUAUAUGAUGUGAAACAUGAGGAUCACCCAUGUAAUAUUAUGGAUGUAAAUAGAAGGGAGAUAAU [Mat - Exclusion 5 - JL mod - D21] (puzzle: Exclusion 5)
[2]
  apparent KD of MS2 coat protein: 37.1 nM
[1]
  apparent KD of MS2 coat protein: 51.1 nM
[3]
  apparent KD of MS2 coat protein: 56.9 nM

## AGAUGCUCGAGUCAACAUGAGGAUCACCCAUGUACAGUUAAUGAGGAUAUCUGAGACAAAUAGUAGGAGAAGGCGUGAACAUGA [Ex NG3 #12] (Eterna round: R96, puzzle: Exclusion NG 3)
Input ligand: FMN 200 uM
  apparent KD of MS2 coat protein: 32.1 nM
[4]
  apparent KD of MS2 coat protein: 69 nM
Input ligand: none
  apparent KD of MS2 coat protein: 39.6 nM

## UUUUAACAUGAGGAUCACCCAUGUGAGGAUAUCGUAAUUUUUAUUAAUAUUAAUAAAACGAGAAGGCACAUUUU [JMF 13] (puzzle: Exclusion 1)
[1]
  apparent KD of MS2 coat protein: 66.8 nM

## AUUGUAGAUGUGAGGAUAUCGUAGAUUUUUUGAAACGAGAAGGCACAUGAGGAUCACCCAUGUAAGAUGUAGGU [JR_BMOE4_Sub053] (puzzle: Brourd's mod of Exclusion 4)
[2]
  apparent KD of MS2 coat protein: 45.8 nM
[1]
  apparent KD of MS2 coat protein: 118 nM
[3]
  apparent KD of MS2 coat protein: 298 nM

## ACUAGCUUUUUGCAUAUUAGGUUUGUUGCUUCGUAUGUAACAUGAGGAUCACCCAUGUAUUACUGAUGUCGUCGUUU [JR_SV3TOV2_Sub091] (puzzle: Sensor v3, turn-off variant 2)
[2]
  apparent KD of MS2 coat protein: 20 nM
[1]
  apparent KD of MS2 coat protein: 17.3 nM
[3]
  apparent KD of MS2 coat protein: 16.9 nM

## GCGGGAUAGCAAGGAUAUCCCGAGUCGCAAGGAAACAUCCACAUGAGGAUCACCCAUGUGGCUCUGGAGAAGGUGCGACGCAAA [Onveceanti] (Eterna round: R96, puzzle: Exclusion NG 2)
Input ligand: FMN 200 uM
  apparent KD of MS2 coat protein: 10.3 nM
[4]
  apparent KD of MS2 coat protein: 9.8 nM
Input ligand: none
  apparent KD of MS2 coat protein: 13.4 nM

## UAUUAGCAAGCGAGAUCCCACAUGAGGAUCACCCAUGUGCUCGUCUUAUAAAGUACUGUGACGAAAGUCACGGUACU [Mat - Sensor, turn-off var - Eli Mod - D7] (Eterna round: R97, puzzle: Sensor, turn-off variant 1)
Input ligand: FMN 200 uM
  apparent KD of MS2 coat protein: 15.2 nM
Input ligand: none
  apparent KD of MS2 coat protein: 14.6 nM

## GCAGCUAACACAGAUAUGUGCACAUGAGGAUCACCCAUGUCACAGGAUAUGGACUGGAUUACAGUCCAGAAGGGUGAAUGCUGC [Zipper Style 6] (Eterna round: R96, puzzle: Exclusion NG 3)
Input ligand: FMN 200 uM
  apparent KD of MS2 coat protein: 10.2 nM
[4]
  apparent KD of MS2 coat protein: 7.97 nM
Input ligand: none
  apparent KD of MS2 coat protein: 14 nM
